The target in experiment [1] is Myostatin (UniProt O14793). In words: cell-based or functional assay.
In experiment [2] the target is Myostatin (UniProt O14793). In words: SPR (Biacore T100): Fc fusion captured by anti-human antibody on a CM4 chip, myostatin injected as analyte, Langmuir 1:1 model. In general terms: SPR reads the build-up and loss of mass on a sensor chip optically.
Experiment [3] addresses Myostatin (UniProt O14793). In words: SPR (Biacore T100), myostatin injected, Langmuir 1:1 model.

Usually koff stands for the rate constant with which the complex falls apart. Read a low koff as a long-lived complex. The kon is the second-order rate constant of association. A higher kon goes with fast association. The term Kd denotes the concentration at which binding is half-saturated.

Myostatin, sequence (O14793 267-375 limits assumed): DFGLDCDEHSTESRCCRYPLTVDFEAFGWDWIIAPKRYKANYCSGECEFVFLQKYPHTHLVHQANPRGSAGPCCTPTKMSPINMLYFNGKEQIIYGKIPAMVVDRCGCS
Activin Receptor 2B-FC (Fc fusion), sequence (Q13705 19-137): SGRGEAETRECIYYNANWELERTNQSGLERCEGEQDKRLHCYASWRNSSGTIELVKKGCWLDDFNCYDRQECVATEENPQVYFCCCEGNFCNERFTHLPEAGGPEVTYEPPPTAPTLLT

Consider hNOPE (1-620) ECD-FC (Fc fusion), for which the IC50 of inhibition of myostatin dependent SMAD2/3 activation (luciferase reporter, HEK293, 0.1 nM myostatin) in the experiment with Myostatin [1] worked out at 0.17 nM.

In the experiment with Myostatin [2], Activin Receptor 2B-FC (Fc fusion) gave a dissociation rate constant (koff) of 0.00098 s⁻¹ and an on-rate constant (kon) of 390000 M⁻¹ s⁻¹. The substance also displayed a Kd with Myostatin [3] of 2.5 nM.

These data come from US20190125833A1.
